Reference: US9932621B2, “Modulators for Sirt5 and assays for screening same” (CORNELL UNIVERSITY, priority 2010, dated 2018)
“Also recorded” adds a separate entry of the source. *1 amine or outer side, *2 acyl side, *3 side chain or, on linkers, in order; H or OH if unused. Where no end group is shown, it is not given here. The star is where a group is joined. Malonyl = O=C(CC(=O)[*:2])[*:1]; AMC = Cc1cc(=O)oc2cc(N*)ccc12; Suc = O=C(CCC(=O)[*:2])[*:1]

Legend:
Sirt2 = target: T1, Sirt2 (Homo sapiens, UniProt Q8IXJ6); assay: Secondary screening using Sirt2 and ISGASE(AcK)-AMC fluorogenic assay; format: biochemical; conditions: inhibitor 30 μM, ISGASE(AcK)-AMC 0.3 mM, Sirt2 1 μM, FIG. 15
T1 construct: made in house
T1 sequence (Q8IXJ6 1-389): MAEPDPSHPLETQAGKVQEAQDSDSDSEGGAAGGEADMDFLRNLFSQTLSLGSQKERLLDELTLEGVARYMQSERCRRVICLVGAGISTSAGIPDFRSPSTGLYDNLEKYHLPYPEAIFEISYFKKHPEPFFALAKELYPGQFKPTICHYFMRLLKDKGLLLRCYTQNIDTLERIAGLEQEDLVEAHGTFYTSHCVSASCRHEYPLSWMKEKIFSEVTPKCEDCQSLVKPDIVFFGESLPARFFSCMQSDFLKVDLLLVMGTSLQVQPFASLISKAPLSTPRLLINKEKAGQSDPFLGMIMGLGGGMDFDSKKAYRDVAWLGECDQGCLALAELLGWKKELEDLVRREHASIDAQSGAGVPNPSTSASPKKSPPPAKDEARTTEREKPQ
Description: SirT2 (1 μM) was incubated with ISGASE(AcK)-AMC (SEQ ID NO:13) peptide (0.3 mM), inhibitors (30 μM), NAD (0.5 mM) in Tris-HCl buffer (pH 7.4, 20 mM) containing dithiothreitol (DTT, 1 mM) in a 60 μL reaction for 4 hours at 37° C. Then trypsin (1 μg) and CaCl2 (1 mM) were added and the reaction were incubated for 3 hours at 37° C. The reactions were diluted with 50 μL water. The mixture (100 μL) was transferred to 96 well plate and the fluorescence was recorded by BIO-TEK® Synergy HT (Optics Position: Top, Sensitivity: 50, Excitation at the wavelength of 360 nm and Emission at the wavelength of 460 nm).

Sirt5 [1] = target: T2, Sirt5 (Homo sapiens, UniProt Q9NXA8); assay: Screening for Sirt5 inhibitors with ISGASE(SuK)-AMC in the fluorogenic assay; format: biochemical; conditions: compound 30 μM, ISGASE(SuK)-AMC 0.3 mM, Sirt5 1 μM, FIG. 13
T2 construct: made in house
T2 sequence (Q9NXA8 37-310): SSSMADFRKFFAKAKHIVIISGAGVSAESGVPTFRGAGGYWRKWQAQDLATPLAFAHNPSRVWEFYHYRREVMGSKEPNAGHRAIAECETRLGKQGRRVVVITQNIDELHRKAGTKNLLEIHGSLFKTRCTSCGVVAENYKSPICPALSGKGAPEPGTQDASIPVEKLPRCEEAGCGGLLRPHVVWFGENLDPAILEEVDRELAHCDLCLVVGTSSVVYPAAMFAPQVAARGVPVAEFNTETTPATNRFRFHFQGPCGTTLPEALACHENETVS
Description: SirT5 (1 μM) was incubated with ISGASE(SuK)-AMC (SEQ ID NO:11) peptide (0.3 mM), NAD (0.5 mM) in Tris-HCl buffer (pH 7.4, 20 mM) with DTT (1 mM) in 60 μL reactions for 4 hours at 37° C. Then trypsin (1 μg) and CaCl2 (1 mM) were added and the reactions were incubated for 3 hours at 37° C. The reactions were the diluted with 50 μL water. The mixture (100 μL) was transferred to 96 well plate and the fluorescence was recorded by BIO-TEK® Synergy HT plate reader (Optics Position: Top, Sensitivity: 50, Excitation at the wavelength of 360 nm and Emission at the wavelength of 460 nm).
The procedure was the same as described above (Assaying Sirt5 activity on ISGASE(SuK)-AMC in the fluorogenic assay), except that different compounds (30 μM) were included in the reactions. In the desuccinylation step, Sirt5 was added last to initiate the desuccinylation reaction.

Sirt5 [2] = target: T2, Sirt5; assay: Sirt5 deacetylation, demalonylation, desuccinylation kinetics on WW-tagged peptides by HPLC; format: biochemical; conditions: peptides with two C-terminal tryptophan residues; for Km: read-out: Peptide Km
Description: (§1) For determination of kcat and Km, human Sirt1, Sirt2, Sirt3 and Sirt5 were measured by detecting the deacylated peptide from H3K9 acyl peptides using HPLC. Purified Sirtuin was incubated with 1.0 mM of NAD in 20 mM Tris-HCl buffer (pH 7.5) containing acyl peptides (0-750 μM) and 1 mM DTT in 60 μL reactions at 37° C. The reactions were stopped with 100 mM HCl and 160 mM acetic acid, analyzed by HPLC with a reverse phase C18 column (250×4.6 mm, 90 A, 10 μm, GraceVydac, Southborough, Mass.), with a linear gradient of 0% to 20% B for 10 min (1 mL/min). […] The kcat and Km values were obtained by curve-fitting the Vinitial/[E] versus [S] plot using KaleidaGraph. For Sirt5 R105M, the observed second order rate constant, kobs (rate/([Sirtuin][NAD])) was detected instead of kcat and Km because of the very weak deacylation activity. The experiments were done in duplicate.
(§2) For comparing the deacetylation, demalonylation and desuccinylation activities of Sirt5 on different peptide backbones (results shown in Table 2), histone H3, GDH and ACS2 peptides with two tryptophan residues at the C-terminal were used to allow better detection and quantification on HPLC. The determination of kcat and Km was carried out essentially the same as mentioned above with slight modifications. The reactions were quenched with 60 μL 10% TFA. The chromatography gradient was 0% to 50% B for 20 min (1 mL/min). The peptides were detected and quantified on the LC by the absorption at 280 nm.

Sirt5 [3] = target: T2, Sirt5; assay: Sirt5-catalyzed desuccinylation of AMC-succinyl peptides monitored by HPLC; format: biochemical; conditions: 2 hrs
Description: […] The reactions were stopped with 200 mM HCl and 320 mM acetic acid, analyzed by HPLC with a reverse phase C18 column (250×4.6 mm, 90 A, 10 μm, GraceVydac, Southborough, Mass.), with a linear gradient of 0% to 20% B for 10 min (1 mL/min).

[4] = substrate: C[C@H](NC(=O)[C@@H](NC(=O)[C@H](CCC(N)=O)NC(=O)[C@@H](N)CCCCN)[C@@H](C)O)C(=O)N[C@@H](CCCNC(=N)N)C(=O)N[C@@H](CCCCNC(=O)CC(=O)O)C(=O)N[C@@H](CO)C(=O)N[C@H](C(=O)NCC(=O)NCC(=O)N[C@@H](Cc1c[nH]c2ccccc12)C(=O)N[C@@H](Cc1c[nH]c2ccccc12)C(=O)O)[C@@H](C)O; assay: Sirt5 deacetylation, demalonylation, desuccinylation kinetics on WW-tagged peptides by HPLC; format: biochemical, human; conditions: other: Sirt5, peptides with two C-terminal tryptophan residues, pH 7.5
Description: as §1, §2

[5] = substrate: C[C@H](NC(=O)[C@@H](NC(=O)[C@H](CCC(N)=O)NC(=O)[C@@H](N)CCCCN)[C@@H](C)O)C(=O)N[C@@H](CCCNC(=N)N)C(=O)N[C@@H](CCCCNC(=O)CCC(=O)O)C(=O)N[C@@H](CO)C(=O)N[C@H](C(=O)NCC(=O)NCC(=O)N[C@@H](Cc1c[nH]c2ccccc12)C(=O)N[C@@H](Cc1c[nH]c2ccccc12)C(=O)O)[C@@H](C)O; assay: as above; format: biochemical, human; conditions: other: Sirt5, peptides with two C-terminal tryptophan residues, pH 7.5
Description: as §1, §2

For `Cc1ccc(C(=O)Nc2ccc(S(=O)(=O)O)c3cc(S(=O)(=O)O)cc(S(=O)(=O)O)c23)cc1NC(=O)c1cccc(NC(=O)Nc2cccc(C(=O)Nc3cc(C(=O)Nc4ccc(S(=O)(=O)O)c5cc(S(=O)(=O)O)cc(S(=O)(=O)O)c45)ccc3C)c2)c1` [suramin], the “fluorescence produced by Sirt2 in fluorogenic assay” value (Sirt2) was “decreased the fluorescence to almost background level” and the “inhibition of Sirt5 (fluorescence) in fluorogenic assay” value (Sirt5 [1]) was “close to background level; also recorded: significant inhibition”.

Molecule “GDH K503 (498-509 + WW) acetyl peptide: GDH K503 acetyl peptide (498-509) with two C-terminal tryptophan residues (SGASEK(Ac)DIVHSGWW)” has a Km (Sirt5 [2]) greater than 750 µM.

In the case of “GDH K503 (498-509 + WW) malonyl peptide: GDH K503 malonyl peptide (498-509) with two C-terminal tryptophan residues (SGASEK(Malonyl)DIVHSGWW)”, the kcat (Sirt5 [2]) is reported as 0.014 ± 0.001 s⁻¹ and the Km (Sirt5 [2]) is reported as 8.7 ± 1.3 µM.

With “GDH K503 (498-509 + WW) succinyl peptide: GDH K503 succinyl peptide (498-509) with two C-terminal tryptophan residues (SGASEK(Suc)DIVHSGWW)” the kcat (Sirt5 [2]) was 0.028 ± 0.002 s⁻¹ and the Km (Sirt5 [2]) was 14 ± 4 µM.

Molecule ISGASE(SuK)-AMC (ISGASEK(Suc)-{AMC}) has a succinyl peptide desuccinylated (Sirt5 [3]; 1 μM Sirt5, 300 μM peptide) of 7.3%, a succinyl peptide desuccinylated (Sirt5 [3]; 2 μM Sirt5, 300 μM peptide) of 17% and a succinyl peptide desuccinylated (Sirt5 [3]; 5 μM Sirt5, 300 μM peptide) of 36%.

“KQTARK(Ac)STGGWW [H3 K9 (4-13 + WW) acetyl peptide]” gave a Km (Sirt5 [2]) greater than 750 µM.

B1: Sirt5 (Homo sapiens) (protein)
chain: SSSMADFRKFFAKAKHIVIISGAGVSAESGVPTFRGAGGYWRKWQAQDLATPLAFAHNPSRVWEFYHYRREVMGSKEPNAGHRAIAECETRLGKQGRRVVVITQNIDELHRKAGTKNLLEIHGSLFKTRCTSCGVVAENYKSPICPALSGKGAPEPGTQDASIPVEKLPRCEEAGCGGLLRPHVVWFGENLDPAILEEVDRELAHCDLCLVVGTSSVVYPAAMFAPQVAARGVPVAEFNTETTPATNRFRFHFQGPCGTTLPEALACHENETVS
notes: made in house
Work on B1 yielded a Km [4] of 6.1 ± 2.8 µM, a kcat [4] of 0.037 ± 0.003 s⁻¹ and a kcat/Km [4] of 6100 M⁻¹ s⁻¹. The Km [5] was 5.8 ± 2.7 µM, the kcat [5] was 0.025 ± 0.002 s⁻¹ and the kcat/Km [5] was 4300 M⁻¹ s⁻¹.
